From the supplement of paper PMC12783771
± gives the standard deviation of the averaged measurements.

B1: library; numbered along this chain (parent)
chain: MNIQIGELAKRTACPVVTIRFYEQEGLLPPPGRSRGNFRLYGEEHVERLQFIRHCRSLDMPLSDVRTLLSYRKRPDQDCGEVNMLLDEHIRQVESRIGALLELKHHLVELREACSGARPAQSCGILQGLSDCVCDTRGTTAHPSD

Key:
[1] = variants of: B1; experiment: sfGFP reporter fluorescence (15 h) (µM FITC); higher = higher leak; details: library round: Round 1; ligand: none
Method in brief: (§1)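 Readout was endpoint sfGFP fluorescence, converted to µM FITC through standard curves. Reactions were 1 μL of BL21 Star (DE3) PANOx-SP extract with pPbrR-sfGFP reporter, 30 μg/mL GamS and linear PbrR templates normalized to 5 nM, containing 1 µM lead chloride, 30 µM zinc acetate or no metal. Incubation lasted 15 hr at 30 °C, with up to three biological replicates.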

[2] = variants of: B1; experiment: sfGFP reporter fluorescence (15 h) (µM FITC); higher = stronger transcriptional activation; details: library round: Round 1
Method in brief: as §1

[3] = variants of: B1; experiment: sfGFP reporter fluorescence (15 h) (µM FITC); higher = higher leak; details: library round: Round 0; ligand: none
Procedure: (§2)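 Cell-free (BL21 Star DE3 extract, PANOx-SP) biosensing: 1 µL Echo-assembled reactions with linear PbrR variant templates (5 nM) and pPbrR-sfGFP reporter, with 1 µM Pb (lead chloride), 30 µM Zn (zinc acetate) or no ligand; endpoint sfGFP fluorescence after 15 h at 30 °C, calibrated as µM FITC. Round 0 library (alanine scan, site saturation, combinatorial) of PbrR from Cupriavidus metallidurans; 2 biological replicates.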

[4] = variants of: B1; experiment: sfGFP reporter fluorescence (15 h) (µM FITC); higher = stronger transcriptional activation; details: library round: Round 0
Procedure: as §2

Row | Variant | sfGFP reporter fluorescence [1] | sfGFP reporter fluorescence ([2]; ligand: 1 µM Pb) | sfGFP reporter fluorescence ([2]; ligand: 30 µM Zn) | sfGFP reporter fluorescence [3] | sfGFP reporter fluorescence ([4]; ligand: 1 µM Pb) | sfGFP reporter fluorescence ([4]; ligand: 30 µM Zn)
1 | L107C D131A | 0.73 ± 0.082 | 1.4 ± 0.048 | 2.23 ± 0.17 | – | – | –
2 | E109H D131C | 0.0634 ± 0.0019 | 0.0764 ± 0.0062 | 0.159 ± 0.017 | – | – | –
3 | L107E G128I | 0.0629 ± 0.0025 | 0.0633 ± 0.0023 | 0.0621 ± 0.0022 | – | – | –
4 | L107C G128I D131C | 0.657 ± 0.018 | 1.26 ± 0.22 | 1.77 ± 0.23 | – | – | –
5 | L107C C134I | 0.731 ± 0.13 | 1.15 ± 0.15 | 2.12 ± 0.21 | – | – | –
6 | G128H P143W | 0.0661 ± 0.0013 | 0.086 ± 0.0043 | 0.159 ± 0.012 | – | – | –
7 | G128H P143A | 0.061 ± 0.0027 | 0.0728 ± 0.0023 | 0.121 ± 0.0099 | – | – | –
8 | K104A G128M | 0.0657 ± 0.0021 | 0.109 ± 0.01 | 0.897 ± 0.013 | – | – | –
9 | G128H D131C | 0.0654 ± 0.0018 | 0.0887 ± 0.01 | 0.187 ± 0.02 | – | – | –
10 | D131S C134V | 0.072 ± 0.005 | 0.126 ± 0.0046 | 1.34 ± 0.045 | – | – | –
11 | unchanged | 0.0626 ± 0.0021 | 0.0729 ± 0.0052 | 0.487 ± 0.22 | 0.0588 ± 0.0029 | 0.0826 ± 0.03 | 0.722 ± 0.087
12 | R111A D131N | 0.066 ± 0.0013 | 0.117 ± 0.018 | 0.829 ± 0.15 | – | – | –
13 | I90L D135A | 0.0614 ± 0.0011 | 0.0634 ± 0.0038 | 0.207 ± 0.0065 | – | – | –
14 | D135R P143A | 0.0577 ± 0.0043 | 0.0707 ± 0.0053 | 0.317 ± 0.04 | – | – | –
15 | N83Y R111D | 0.06194 ± 0.00037 | 0.0568 ± 0.0025 | 0.0571 ± 0.0031 | – | – | –
16 | N83Y R111L | 0.06133 ± 0.00056 | 0.0694 ± 0.0053 | 0.0698 ± 0.0019 | – | – | –
17 | N83Y R111A | 0.064 ± 0.00092 | 0.0721 ± 0.0067 | 0.0742 ± 0.00085 | – | – | –
18 | E109H D135A | 0.0629 ± 0.00092 | 0.0832 ± 0.011 | 0.254 ± 0.02 | – | – | –
19 | R111F E112A | 0.05962 ± 0.00021 | 0.0657 ± 0.00092 | 0.22 ± 0.021 | – | – | –
20 | N83T L107C C114R G128M | 0.063 ± 0.0015 | 0.0605 ± 0.0029 | 0.06108 ± 0.00021 | – | – | –
21 | E109A D131C | 0.0641 ± 0.0019 | 0.0804 ± 0.0035 | 0.462 ± 0.0051 | – | – | –
22 | L107C G128I D135S | 2.64 ± 0.069 | 3.9 ± 0.36 | 4.376 ± 0.041 | – | – | –

Row | Variant | sfGFP reporter fluorescence [1] | sfGFP reporter fluorescence ([2]; ligand: 1 µM Pb) | sfGFP reporter fluorescence ([2]; ligand: 30 µM Zn) | sfGFP reporter fluorescence [3] | sfGFP reporter fluorescence ([4]; ligand: 1 µM Pb) | sfGFP reporter fluorescence ([4]; ligand: 30 µM Zn)
23 | L110I R111A | 0.0628 ± 0.00092 | 0.0635 ± 0.0042 | 0.415 ± 0.045 | – | – | –
24 | G128A L129M | 0.0617 ± 0.0017 | 0.0701 ± 0.0044 | 0.257 ± 0.034 | – | – | –
25 | D135A T136S | 0.065 ± 0.00085 | 0.0751 ± 0.0085 | 0.424 ± 0.047 | – | – | –
26 | Q127A D135P | 0.0621 ± 0.0012 | 0.0781 ± 0.0053 | 0.244 ± 0.021 | – | – | –
27 | D131S P143A | 0.0606 ± 0.0013 | 0.07916 ± 0.00037 | 0.373 ± 0.042 | – | – | –
28 | E109L D135P | 0.0655 ± 0.0031 | 0.102 ± 0.0041 | 0.497 ± 0.027 | – | – | –
29 | E109L D135R | 0.0677 ± 0.0015 | 0.0959 ± 0.0042 | 0.406 ± 0.061 | – | – | –
30 | M84A D131H | 0.0584 ± 0.0011 | 0.0712 ± 0.002 | 0.463 ± 0.061 | – | – | –
31 | N83V C134S | 0.0579 ± 0.00097 | 0.0667 ± 0.0035 | 0.055 ± 0.00064 | – | – | –
32 | E112I D131C | 0.06499 ± 0.00042 | 0.0652 ± 0.002 | 0.083 ± 0.0019 | – | – | –
33 | R96A K104V | 0.068 ± 0.0015 | 0.0754 ± 0.0017 | 0.118 ± 0.0059 | – | – | –
34 | L107C G128I P143A | 0.52 ± 0.062 | 1.09 ± 0.32 | 2.25 ± 0.092 | – | – | –
35 | I97S K104V | 0.0836 ± 0.0026 | 0.247 ± 0.016 | 0.825 ± 0.05 | – | – | –
36 | E112I D135A | 0.063 ± 0.0023 | 0.06438 ± 0.00042 | 0.176 ± 0.0035 | – | – | –
37 | K104R C134I | 0.0715 ± 0.00073 | 0.152 ± 0.007 | 1.14 ± 0.072 | – | – | –
38 | L107I C114R | 0.059 ± 0.0019 | 0.0512 ± 0.0044 | 0.0514 ± 0.00092 | – | – | –
39 | N2A | – | – | – | 0.0517 ± 0.001 | 0.0614 ± 0.0065 | 0.801 ± 0.036
40 | Q121A D135A | 0.0661 ± 0.0031 | 0.0888 ± 0.0096 | 0.743 ± 0.11 | – | – | –
41 | V108R P143M | 0.0636 ± 0.002 | 0.0724 ± 0.0057 | 0.376 ± 0.019 | – | – | –
42 | R111I C134P | 0.0589 ± 0.0022 | 0.0683 ± 0.0031 | 0.228 ± 0.0041 | – | – | –
43 | M84A G124A | 0.0619 | 0.064 ± 0.0056 | 0.143 ± 0.0022 | – | – | –
